Measured values: patent US20210388087A1 (Chugai, published 2021)

molecular target: T1, CD3 epsilon homodimer protein (UniProt P07766 23-126); experiment: SPR (Biacore T200), CD3 epsilon homodimer on CM4 chip, one-arm antibody as analyte, 25 C;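 also: homodimer attached to the sensor surface via amine coupling, HBS-EP+ used as running buffer during binding runs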
T1 construct: immobilized on Sensor chip CM4 by amine coupling; also called CD3 (CD3 epsilon)
T1 sequence (P07766 23-126): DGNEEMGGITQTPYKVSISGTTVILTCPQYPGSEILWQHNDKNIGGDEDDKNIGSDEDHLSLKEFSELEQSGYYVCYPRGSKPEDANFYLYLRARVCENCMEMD

Row | Binder | ratio of amounts bound (altered form / CE115HA000)
1 | CE115HA000 S30G one-arm antibody (antibody, human IgG1, kappa, L234A L235A, N297A, name in Kabat numbering) heavy: QVQLVESGGGVVQPGRSLRLSCAASGFTFGNAWMHWVRQAPGKGLEWVAQIKAKSNNYATYYAESVKGRFTISRDDSKNSLYLQMNSLKTEDTAVYYCRYVHYGAYYGVDAWGQGTTVTVSSASTKGPSVFPLAPSSKSTSGGTAALGCLVKDYFPEPVTVSWNSGALTSGVHTFPAVLQSSGLYSLSSVVTVPSSSLGTQTYICNVNHKPSNTKVDKKVEPKSCDKTHTCPPCPAPEAAGGPSVFLFPPKPKDTLMISRTPEVTCVVVDVSHEDPEVKFNWYVDGVEVHNAKTKPREEQYASTYRVVSVLTVLHQDWLNGKEYKCKVSNKALPAPIEKTISKAKGQPREPQVYTLPPSRCELTKNQVSLSCAVKGFYPSDIAVEWESNGQPENNYKTTPPVLDSDGSFFLVSKLTVDKSRWQQGNVFSCSVMHEALHNHYTQKSLSLSPDYKDDDDK EPKSSDKTHTCPPCPAPELLGGPSVFLFPPKPKDTLMISRTPEVTCVVVDVSHEDPEVKFNWYVDGVEVHNAKTKPREEQYNSTYRVVSVLTVLHQDWLNGKEYKCKVSNKALPAPIEKTISKAKGQPREPQVCTLPPSRDELTKNQVSLWCLVKGFYPSDIAVEWESNGQPENNYKTTPPVLDSDGSFFLYSKLTVDKSRWQQGNVFSCSVMHEALHNRYTQKSLSLSP light: DIVMTQSPLSLPVTPGEPASISCRSSQSLVHSNRNTYLHWYQQKPGQAPRLLIYKVSNRFSGVPDRFSGSGSGTDFTLKISRVEAEDVGVYYCGQGTQVPYTFGQGTKLEIKRTVAAPSVFIFPPSDEQLKSGTASVVCLLNNFYPREAKVQWKVDNALQSGNSQESVTEQDSKDSTYSLSSTLTLSKADYEKHKVYACEVTHQGLSSPVTKSFNRGEC | 1.01
2 | CE115HA000 S52cF one-arm antibody (antibody, human IgG1, kappa, L234A L235A, N297A, name in Kabat numbering) heavy: QVQLVESGGGVVQPGRSLRLSCAASGFTFSNAWMHWVRQAPGKGLEWVAQIKAKFNNYATYYAESVKGRFTISRDDSKNSLYLQMNSLKTEDTAVYYCRYVHYGAYYGVDAWGQGTTVTVSSASTKGPSVFPLAPSSKSTSGGTAALGCLVKDYFPEPVTVSWNSGALTSGVHTFPAVLQSSGLYSLSSVVTVPSSSLGTQTYICNVNHKPSNTKVDKKVEPKSCDKTHTCPPCPAPEAAGGPSVFLFPPKPKDTLMISRTPEVTCVVVDVSHEDPEVKFNWYVDGVEVHNAKTKPREEQYASTYRVVSVLTVLHQDWLNGKEYKCKVSNKALPAPIEKTISKAKGQPREPQVYTLPPSRCELTKNQVSLSCAVKGFYPSDIAVEWESNGQPENNYKTTPPVLDSDGSFFLVSKLTVDKSRWQQGNVFSCSVMHEALHNHYTQKSLSLSPDYKDDDDK EPKSSDKTHTCPPCPAPELLGGPSVFLFPPKPKDTLMISRTPEVTCVVVDVSHEDPEVKFNWYVDGVEVHNAKTKPREEQYNSTYRVVSVLTVLHQDWLNGKEYKCKVSNKALPAPIEKTISKAKGQPREPQVCTLPPSRDELTKNQVSLWCLVKGFYPSDIAVEWESNGQPENNYKTTPPVLDSDGSFFLYSKLTVDKSRWQQGNVFSCSVMHEALHNRYTQKSLSLSP light: DIVMTQSPLSLPVTPGEPASISCRSSQSLVHSNRNTYLHWYQQKPGQAPRLLIYKVSNRFSGVPDRFSGSGSGTDFTLKISRVEAEDVGVYYCGQGTQVPYTFGQGTKLEIKRTVAAPSVFIFPPSDEQLKSGTASVVCLLNNFYPREAKVQWKVDNALQSGNSQESVTEQDSKDSTYSLSSTLTLSKADYEKHKVYACEVTHQGLSSPVTKSFNRGEC | 1.13
3 | CE115HA000 S52cK one-arm antibody (antibody, human IgG1, kappa, L234A L235A, N297A, name in Kabat numbering) heavy: QVQLVESGGGVVQPGRSLRLSCAASGFTFSNAWMHWVRQAPGKGLEWVAQIKAKKNNYATYYAESVKGRFTISRDDSKNSLYLQMNSLKTEDTAVYYCRYVHYGAYYGVDAWGQGTTVTVSSASTKGPSVFPLAPSSKSTSGGTAALGCLVKDYFPEPVTVSWNSGALTSGVHTFPAVLQSSGLYSLSSVVTVPSSSLGTQTYICNVNHKPSNTKVDKKVEPKSCDKTHTCPPCPAPEAAGGPSVFLFPPKPKDTLMISRTPEVTCVVVDVSHEDPEVKFNWYVDGVEVHNAKTKPREEQYASTYRVVSVLTVLHQDWLNGKEYKCKVSNKALPAPIEKTISKAKGQPREPQVYTLPPSRCELTKNQVSLSCAVKGFYPSDIAVEWESNGQPENNYKTTPPVLDSDGSFFLVSKLTVDKSRWQQGNVFSCSVMHEALHNHYTQKSLSLSPDYKDDDDK EPKSSDKTHTCPPCPAPELLGGPSVFLFPPKPKDTLMISRTPEVTCVVVDVSHEDPEVKFNWYVDGVEVHNAKTKPREEQYNSTYRVVSVLTVLHQDWLNGKEYKCKVSNKALPAPIEKTISKAKGQPREPQVCTLPPSRDELTKNQVSLWCLVKGFYPSDIAVEWESNGQPENNYKTTPPVLDSDGSFFLYSKLTVDKSRWQQGNVFSCSVMHEALHNRYTQKSLSLSP light: DIVMTQSPLSLPVTPGEPASISCRSSQSLVHSNRNTYLHWYQQKPGQAPRLLIYKVSNRFSGVPDRFSGSGSGTDFTLKISRVEAEDVGVYYCGQGTQVPYTFGQGTKLEIKRTVAAPSVFIFPPSDEQLKSGTASVVCLLNNFYPREAKVQWKVDNALQSGNSQESVTEQDSKDSTYSLSSTLTLSKADYEKHKVYACEVTHQGLSSPVTKSFNRGEC | 1.19
4 | CE115HA000 S52cA one-arm antibody (antibody, human IgG1, kappa, L234A L235A, N297A, name in Kabat numbering) heavy: QVQLVESGGGVVQPGRSLRLSCAASGFTFSNAWMHWVRQAPGKGLEWVAQIKAKANNYATYYAESVKGRFTISRDDSKNSLYLQMNSLKTEDTAVYYCRYVHYGAYYGVDAWGQGTTVTVSSASTKGPSVFPLAPSSKSTSGGTAALGCLVKDYFPEPVTVSWNSGALTSGVHTFPAVLQSSGLYSLSSVVTVPSSSLGTQTYICNVNHKPSNTKVDKKVEPKSCDKTHTCPPCPAPEAAGGPSVFLFPPKPKDTLMISRTPEVTCVVVDVSHEDPEVKFNWYVDGVEVHNAKTKPREEQYASTYRVVSVLTVLHQDWLNGKEYKCKVSNKALPAPIEKTISKAKGQPREPQVYTLPPSRCELTKNQVSLSCAVKGFYPSDIAVEWESNGQPENNYKTTPPVLDSDGSFFLVSKLTVDKSRWQQGNVFSCSVMHEALHNHYTQKSLSLSPDYKDDDDK EPKSSDKTHTCPPCPAPELLGGPSVFLFPPKPKDTLMISRTPEVTCVVVDVSHEDPEVKFNWYVDGVEVHNAKTKPREEQYNSTYRVVSVLTVLHQDWLNGKEYKCKVSNKALPAPIEKTISKAKGQPREPQVCTLPPSRDELTKNQVSLWCLVKGFYPSDIAVEWESNGQPENNYKTTPPVLDSDGSFFLYSKLTVDKSRWQQGNVFSCSVMHEALHNRYTQKSLSLSP light: DIVMTQSPLSLPVTPGEPASISCRSSQSLVHSNRNTYLHWYQQKPGQAPRLLIYKVSNRFSGVPDRFSGSGSGTDFTLKISRVEAEDVGVYYCGQGTQVPYTFGQGTKLEIKRTVAAPSVFIFPPSDEQLKSGTASVVCLLNNFYPREAKVQWKVDNALQSGNSQESVTEQDSKDSTYSLSSTLTLSKADYEKHKVYACEVTHQGLSSPVTKSFNRGEC | 0.96
5 | CE115HA000 S52cD one-arm antibody (antibody, human IgG1, kappa, L234A L235A, N297A, name in Kabat numbering) heavy: QVQLVESGGGVVQPGRSLRLSCAASGFTFSNAWMHWVRQAPGKGLEWVAQIKAKDNNYATYYAESVKGRFTISRDDSKNSLYLQMNSLKTEDTAVYYCRYVHYGAYYGVDAWGQGTTVTVSSASTKGPSVFPLAPSSKSTSGGTAALGCLVKDYFPEPVTVSWNSGALTSGVHTFPAVLQSSGLYSLSSVVTVPSSSLGTQTYICNVNHKPSNTKVDKKVEPKSCDKTHTCPPCPAPEAAGGPSVFLFPPKPKDTLMISRTPEVTCVVVDVSHEDPEVKFNWYVDGVEVHNAKTKPREEQYASTYRVVSVLTVLHQDWLNGKEYKCKVSNKALPAPIEKTISKAKGQPREPQVYTLPPSRCELTKNQVSLSCAVKGFYPSDIAVEWESNGQPENNYKTTPPVLDSDGSFFLVSKLTVDKSRWQQGNVFSCSVMHEALHNHYTQKSLSLSPDYKDDDDK EPKSSDKTHTCPPCPAPELLGGPSVFLFPPKPKDTLMISRTPEVTCVVVDVSHEDPEVKFNWYVDGVEVHNAKTKPREEQYNSTYRVVSVLTVLHQDWLNGKEYKCKVSNKALPAPIEKTISKAKGQPREPQVCTLPPSRDELTKNQVSLWCLVKGFYPSDIAVEWESNGQPENNYKTTPPVLDSDGSFFLYSKLTVDKSRWQQGNVFSCSVMHEALHNRYTQKSLSLSP light: DIVMTQSPLSLPVTPGEPASISCRSSQSLVHSNRNTYLHWYQQKPGQAPRLLIYKVSNRFSGVPDRFSGSGSGTDFTLKISRVEAEDVGVYYCGQGTQVPYTFGQGTKLEIKRTVAAPSVFIFPPSDEQLKSGTASVVCLLNNFYPREAKVQWKVDNALQSGNSQESVTEQDSKDSTYSLSSTLTLSKADYEKHKVYACEVTHQGLSSPVTKSFNRGEC | 0.6
6 | CE115HA000 S52cG one-arm antibody (antibody, human IgG1, kappa, L234A L235A, N297A, name in Kabat numbering) heavy: QVQLVESGGGVVQPGRSLRLSCAASGFTFSNAWMHWVRQAPGKGLEWVAQIKAKGNNYATYYAESVKGRFTISRDDSKNSLYLQMNSLKTEDTAVYYCRYVHYGAYYGVDAWGQGTTVTVSSASTKGPSVFPLAPSSKSTSGGTAALGCLVKDYFPEPVTVSWNSGALTSGVHTFPAVLQSSGLYSLSSVVTVPSSSLGTQTYICNVNHKPSNTKVDKKVEPKSCDKTHTCPPCPAPEAAGGPSVFLFPPKPKDTLMISRTPEVTCVVVDVSHEDPEVKFNWYVDGVEVHNAKTKPREEQYASTYRVVSVLTVLHQDWLNGKEYKCKVSNKALPAPIEKTISKAKGQPREPQVYTLPPSRCELTKNQVSLSCAVKGFYPSDIAVEWESNGQPENNYKTTPPVLDSDGSFFLVSKLTVDKSRWQQGNVFSCSVMHEALHNHYTQKSLSLSPDYKDDDDK EPKSSDKTHTCPPCPAPELLGGPSVFLFPPKPKDTLMISRTPEVTCVVVDVSHEDPEVKFNWYVDGVEVHNAKTKPREEQYNSTYRVVSVLTVLHQDWLNGKEYKCKVSNKALPAPIEKTISKAKGQPREPQVCTLPPSRDELTKNQVSLWCLVKGFYPSDIAVEWESNGQPENNYKTTPPVLDSDGSFFLYSKLTVDKSRWQQGNVFSCSVMHEALHNRYTQKSLSLSP light: DIVMTQSPLSLPVTPGEPASISCRSSQSLVHSNRNTYLHWYQQKPGQAPRLLIYKVSNRFSGVPDRFSGSGSGTDFTLKISRVEAEDVGVYYCGQGTQVPYTFGQGTKLEIKRTVAAPSVFIFPPSDEQLKSGTASVVCLLNNFYPREAKVQWKVDNALQSGNSQESVTEQDSKDSTYSLSSTLTLSKADYEKHKVYACEVTHQGLSSPVTKSFNRGEC | 0.97
